# B1: NDH-2 (type II NADH:quinone oxidoreductase) (Caldalkalibacillus thermarum TA2.A1) (protein)
# chain: MSKPSIVILGAGYGGIVAALGLQKRLNYNEADITLVNKNDYHYITTELHQPAAGTMHHDQARVGIKELIDEKKIKFVKDTVVAIDREQQKVTLQNGELHYDYLVVGLGSEPETFGIEGLREHAFSINSINSVRIIRQHIEYQFAKFAAEPERTDYLTIVVGGAGFTGIEFVGELADRMPELCAEYDVDPKLVRIINVEAAPTVLPGFDPALVNYAMDVLGGKGVEFKIGTPIKRCTPEGVVIEVDGEEEEIKAATVVWTGGVRGNSIVEKSGFETMRGRIKVDPYLRAPGHENIFIVGDCALIINEENNRPYPPTAQIAIQHGENVAANLAALIRGGSMTPFKPHIRGTVASLGRNDAIGIVGGRKVYGHAASWLKKLIDMRYLYLIGGLSLVLKKGRF
# What was measured:
# [1] = molecular target: T1, NDH-2 (type II NADH:quinone oxidoreductase) (Caldalkalibacillus thermarum, UniProt F5L3B8, I379E); assay: CTC formation by absorbance and stopped-flow flavin reduction; format: binding
# T1 construct: gene CathTA2_0279
# T1 sequence (F5L3B8 1-399 I379E): B1 chain
# [2] = molecular target: T2, NDH-2 (type II NADH:quinone oxidoreductase) (Caldalkalibacillus thermarum, UniProt F5L3B8, G164E); assay: steady-state kinetics (KM); compromised binding, no CTC; format: biochemical
# T2 construct: gene CathTA2_0279
# T2 sequence (F5L3B8 1-399 G164E): B1 chain
# [3] = molecular target: T3, NDH-2 (type II NADH:quinone oxidoreductase) (Caldalkalibacillus thermarum, UniProt F5L3B8); assay: spectroscopic titration of reduced enzyme (CTC), upper limit for KD; co-crystal structure at […] Å; format: binding
# T3 construct: gene CathTA2_0279
# T3 sequence (F5L3B8 1-399): B1 chain
# CC1=CC(=O)c2ccccc2C1=O = assay: steady-state kinetics (KM); compromised binding; format: biochemical, Caldalkalibacillus thermarum; conditions: FAD quinone-binding site; clashes with the side chain of E379
# [4] = substrate: CC1=CC(=O)c2ccccc2C1=O; assay: steady-state kinetics (KM) and stopped-flow flavin reoxidation; format: biochemical, Caldalkalibacillus thermarum; conditions: FAD quinone-binding site on the opposite face of the flavin to the nucleotide-binding site; I379 at the entry
# purified protein [5] = substrate: CC(=O)c1ccc[n+]([C@@H]2O[C@H](COP(=O)([O-])OP(=O)(O)OC[C@H]3O[C@@H](n4cnc5c(N)ncnc54)[C@H](O)[C@@H]3O)[C@@H](O)[C@H]2O)c1; assay: purified protein; conditions: FAD competes with NAD+ for the reduced flavin
# purified protein [6] = substrate: NC(=O)C1=CN([C@@H]2O[C@H](COP(=O)(O)OP(=O)(O)OC[C@H]3O[C@@H](n4cnc5c(N)ncnc54)[C@H](O)[C@@H]3O)[C@@H](O)[C@H]2O)C=CC1; assay: purified protein; conditions: FAD nucleotide-binding site, nicotinamide ring juxtaposed over the flavin; E198 hydrogen bonds to the adenine ribose; F165 moves
molecule,measurement,setting,value
NC(=O)C1=CN([C@@H]2O[C@H](COP(=O)(O)OP(=O)(O)OC[C@H]3O[C@@H](n4cnc5c(N)ncnc54)[C@H](O)[C@@H]3O)[C@@H](O)[C@H]2O)C=CC1 [NADH],CTC formation by absorbance and stopped-flow flavin reduction,[1],"When oxidized I379E reacts with NADH, the flavin is reduced and a CTC forms, as in the WT enzyme"
same,Km,[2],> 1000 µM
NC(=O)c1ccc[n+]([C@@H]2O[C@H](COP(=O)([O-])OP(=O)(O)OC[C@H]3O[C@@H](n4cnc5c(N)ncnc54)[C@H](O)[C@@H]3O)[C@@H](O)[C@H]2O)c1 [NAD^+],Kd,[3],< 2000 nM
NDH-2 (type II NADH:quinone oxidoreductase) (Caldalkalibacillus thermarum TA2.A1; I379E),Km,CC1=CC(=O)c2ccccc2C1=O,780 µM
B1,Km,[4],34 µM
same,Km,purified protein [5],7.2 µM
same,Km,purified protein [6],29 µM
